Assay results taken from patent publication US6818617.
Like-named read-outs stand apart in the source and are kept apart here.

What was measured:
[1] = target: integrin α4β1 on Jurkat cells (UniProt P13612)
[2] = target: integrin α4β7 (UniProt P13612)
[3] = target: integrin αIIbβ3 (human) (UniProt P08514); assay: cell-based or functional assay
[4] = target: integrin α4β1 on Jurkat cells (UniProt P13612); assay: inhibition of cell adhesion: Jurkat cells to CS-1
[5] = target: integrin α6β1 on K562 cells transfected with α6 (UniProt P23229); assay: inhibition of cell adhesion: K562 (α6+) cells to laminin
[6] = target: integrin α4β7 (UniProt P13612); assay: inhibition of cell adhesion: RPMI 8866 cells to MadCAM-1
[7] = target: integrin α4β1 on Jurkat cells (UniProt P13612); assay: inhibition of cell adhesion: Jurkat cells to immobilized VCAM-1
[8] = target: integrin αIIbβ3 (human) (UniProt P08514); assay: inhibition of cell adhesion: A5 (CHO αIIbβ3+) cells to immobilized fibrinogen
[9] = target: integrin αvβ3 (human) (UniProt P06756); assay: inhibition of cell adhesion: VNRC3 (CHO αvβ3+) cells to immobilized vitronectin
integrin αvβ3 (human), sequence (P06756 31-1048, chain 1 of 2): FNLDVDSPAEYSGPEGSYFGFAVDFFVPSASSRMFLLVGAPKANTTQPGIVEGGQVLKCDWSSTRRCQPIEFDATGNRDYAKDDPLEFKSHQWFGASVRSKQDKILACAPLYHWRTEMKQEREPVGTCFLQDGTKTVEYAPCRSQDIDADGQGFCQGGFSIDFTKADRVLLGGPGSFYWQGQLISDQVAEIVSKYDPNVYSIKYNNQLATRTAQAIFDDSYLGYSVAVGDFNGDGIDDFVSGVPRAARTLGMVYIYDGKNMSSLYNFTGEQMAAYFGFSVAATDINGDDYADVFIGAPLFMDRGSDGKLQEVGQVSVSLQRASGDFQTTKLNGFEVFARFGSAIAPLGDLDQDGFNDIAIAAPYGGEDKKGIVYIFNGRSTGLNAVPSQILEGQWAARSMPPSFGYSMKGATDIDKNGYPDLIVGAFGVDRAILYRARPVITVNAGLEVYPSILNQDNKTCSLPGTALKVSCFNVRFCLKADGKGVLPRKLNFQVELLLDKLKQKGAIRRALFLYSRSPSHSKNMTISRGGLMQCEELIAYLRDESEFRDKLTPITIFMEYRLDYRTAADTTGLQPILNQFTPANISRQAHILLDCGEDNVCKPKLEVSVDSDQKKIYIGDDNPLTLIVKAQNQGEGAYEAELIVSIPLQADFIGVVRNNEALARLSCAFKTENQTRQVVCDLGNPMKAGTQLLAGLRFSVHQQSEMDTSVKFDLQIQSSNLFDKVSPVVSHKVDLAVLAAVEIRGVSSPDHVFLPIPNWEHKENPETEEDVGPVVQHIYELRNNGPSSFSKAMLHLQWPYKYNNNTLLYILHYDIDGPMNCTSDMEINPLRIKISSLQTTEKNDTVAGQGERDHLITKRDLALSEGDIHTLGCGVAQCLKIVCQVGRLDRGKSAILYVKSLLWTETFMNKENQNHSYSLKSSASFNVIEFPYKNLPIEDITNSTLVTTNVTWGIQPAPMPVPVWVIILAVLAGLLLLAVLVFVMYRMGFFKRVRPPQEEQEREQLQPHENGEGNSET
integrin αvβ3 (human), sequence (P05106 27-788, chain 2 of 2, further chain): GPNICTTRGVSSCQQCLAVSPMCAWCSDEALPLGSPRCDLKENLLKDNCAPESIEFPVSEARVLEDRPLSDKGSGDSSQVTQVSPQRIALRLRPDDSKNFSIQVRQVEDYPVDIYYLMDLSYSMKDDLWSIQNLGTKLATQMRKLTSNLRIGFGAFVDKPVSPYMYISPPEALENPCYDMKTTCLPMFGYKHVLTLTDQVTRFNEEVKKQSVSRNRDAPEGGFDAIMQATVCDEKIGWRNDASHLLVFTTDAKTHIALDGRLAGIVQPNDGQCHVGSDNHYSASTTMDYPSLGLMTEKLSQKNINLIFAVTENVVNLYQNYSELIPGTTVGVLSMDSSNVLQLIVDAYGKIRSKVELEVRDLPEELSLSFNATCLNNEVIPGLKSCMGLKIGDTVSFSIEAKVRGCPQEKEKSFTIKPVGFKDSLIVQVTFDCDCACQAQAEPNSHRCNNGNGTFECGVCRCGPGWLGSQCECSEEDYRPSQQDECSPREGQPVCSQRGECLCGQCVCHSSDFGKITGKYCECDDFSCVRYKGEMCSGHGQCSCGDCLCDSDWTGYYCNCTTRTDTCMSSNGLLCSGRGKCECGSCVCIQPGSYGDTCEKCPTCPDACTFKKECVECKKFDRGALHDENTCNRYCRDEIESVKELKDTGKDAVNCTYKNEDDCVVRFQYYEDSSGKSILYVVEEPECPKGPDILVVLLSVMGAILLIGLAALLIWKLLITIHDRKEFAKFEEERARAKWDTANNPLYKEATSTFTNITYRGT

integrin α6β1 on K562 cells transfected with α6, sequence (P23229 24-1130, chain 1 of 2): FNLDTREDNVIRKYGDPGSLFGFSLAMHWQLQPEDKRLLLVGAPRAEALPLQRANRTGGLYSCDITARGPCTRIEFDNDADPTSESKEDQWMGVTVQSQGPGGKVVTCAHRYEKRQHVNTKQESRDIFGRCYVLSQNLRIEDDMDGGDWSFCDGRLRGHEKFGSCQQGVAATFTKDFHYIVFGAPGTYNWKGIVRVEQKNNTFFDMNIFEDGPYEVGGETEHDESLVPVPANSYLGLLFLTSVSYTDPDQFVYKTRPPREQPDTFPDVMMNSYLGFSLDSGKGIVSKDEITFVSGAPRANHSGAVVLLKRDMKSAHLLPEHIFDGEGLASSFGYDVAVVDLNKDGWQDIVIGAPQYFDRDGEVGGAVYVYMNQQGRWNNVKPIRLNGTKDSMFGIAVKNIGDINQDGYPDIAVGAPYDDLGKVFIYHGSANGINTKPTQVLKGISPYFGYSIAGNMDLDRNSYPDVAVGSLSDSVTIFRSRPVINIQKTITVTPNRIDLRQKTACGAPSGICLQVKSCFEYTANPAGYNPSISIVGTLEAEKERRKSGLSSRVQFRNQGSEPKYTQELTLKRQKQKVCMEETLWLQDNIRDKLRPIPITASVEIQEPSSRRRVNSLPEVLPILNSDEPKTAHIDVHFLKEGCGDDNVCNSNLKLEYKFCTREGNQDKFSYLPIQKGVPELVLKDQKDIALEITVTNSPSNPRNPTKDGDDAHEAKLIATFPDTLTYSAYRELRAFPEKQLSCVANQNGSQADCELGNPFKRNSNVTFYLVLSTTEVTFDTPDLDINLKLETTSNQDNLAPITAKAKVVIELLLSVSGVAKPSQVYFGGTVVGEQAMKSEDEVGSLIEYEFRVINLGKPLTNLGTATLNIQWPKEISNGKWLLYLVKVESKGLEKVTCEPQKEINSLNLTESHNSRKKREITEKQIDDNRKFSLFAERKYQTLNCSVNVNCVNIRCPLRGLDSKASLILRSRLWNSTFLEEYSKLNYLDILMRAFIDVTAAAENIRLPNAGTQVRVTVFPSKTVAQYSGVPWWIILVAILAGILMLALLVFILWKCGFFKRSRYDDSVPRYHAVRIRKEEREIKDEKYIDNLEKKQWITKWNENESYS
integrin α6β1 on K562 cells transfected with α6, sequence (P05556 21-798, chain 2 of 2, further chain): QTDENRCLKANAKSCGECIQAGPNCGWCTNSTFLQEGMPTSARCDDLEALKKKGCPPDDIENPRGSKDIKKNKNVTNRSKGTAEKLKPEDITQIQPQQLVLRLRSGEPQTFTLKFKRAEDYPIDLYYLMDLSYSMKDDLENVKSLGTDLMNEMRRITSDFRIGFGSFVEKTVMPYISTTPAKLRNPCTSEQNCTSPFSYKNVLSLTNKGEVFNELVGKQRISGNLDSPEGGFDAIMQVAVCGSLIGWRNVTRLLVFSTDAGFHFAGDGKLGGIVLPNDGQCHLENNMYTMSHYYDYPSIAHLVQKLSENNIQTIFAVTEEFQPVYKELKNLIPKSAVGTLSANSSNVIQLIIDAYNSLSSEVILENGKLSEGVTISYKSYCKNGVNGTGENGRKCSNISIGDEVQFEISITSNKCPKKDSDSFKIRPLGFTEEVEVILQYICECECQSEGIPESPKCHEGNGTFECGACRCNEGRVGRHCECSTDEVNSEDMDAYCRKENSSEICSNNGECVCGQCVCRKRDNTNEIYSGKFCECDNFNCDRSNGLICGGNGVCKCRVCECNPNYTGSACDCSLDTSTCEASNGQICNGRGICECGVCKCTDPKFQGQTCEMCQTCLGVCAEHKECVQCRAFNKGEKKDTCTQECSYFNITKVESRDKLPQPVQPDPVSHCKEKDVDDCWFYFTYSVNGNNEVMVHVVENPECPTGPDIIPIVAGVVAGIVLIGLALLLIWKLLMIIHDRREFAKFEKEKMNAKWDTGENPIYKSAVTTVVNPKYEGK

| Substance | IC50 [1] [nM] | IC50 [2] [nM] | IC50, ADP PA (ADP-induced platelet aggregation in platelet rich plasma) [3] [nM] | IC50 [4] [nM] | IC50 [5] [nM] | IC50 [6] [nM] | IC50 [7] [nM] | IC50 [8] [nM] | IC50 [9] [nM] |
| --- | --- | --- | --- | --- | --- | --- | --- | --- | --- |
| EC-3 protein, heterodimeric disintegrin from Echis carinatus suchoreki venom (from UniProt P81630 1-67; P81631 1-67) | 28 | 6 | 1000 | 100 | > 10000 | 5 | 25 | 500 | > 10000 |
| Echistatin (from UniProt P0C6R5 4-52) | – | – | 130 | – | > 10000 | > 10000 | > 10000 | 50 | 50 |
